± gives the uncertainty stated by the source.
Test: self-splicing fitness, log relative to wild type (ln ratio); higher = more splicing; Tetrahymena group I intron in knt gene, E. coli kanamycin selection, DiMSum; sequences stand for … in CUCUCU…GGAGGGAAAAGUUAUCAGGCAUGCACCUGGUAGCUAGUCUUUAAACCAAUAGAUUGCAUCGGUUUAAAAGGCAAGACCGUCAAAUUGCGGGAAAGGGGUCAACAGCCGUUCAGUACCAAGUCUCAGGGGAAACUUUGAGAUGGCCUUGCAAAGGGUAUGGUAAUAAGCUGACGGACAUGGUCCUAACCACGCAGCCAAGUCCUAAGUCAACAGAUCUUCUGUUGAUAUGGAUGCAGUUCACAGACUAAAUGUCGGUCGGGGAAGAUGUAUUCUUCUCAUAAGAUAUAGUCGGACCUCUCCUUAAUGGGAGCUAGCGGAUGAAGUGAUGCAACACUGGAGCCGCUGGGAACUAAUUUGUAUGCGAAAGUAUAUUGAUUAGUUUUGGAGUACUCGUGGUCG
Procedure, shortened: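 Six replicate transformations of E. coli BL21(DE3) with a pET-22b(+) library were grown overnight at 37°C or 30°C. The library randomised all eight P1ex-region intron nucleotides, the intron lying in the knt kanamycin-resistance gene, and plates were LB agar with or without 25 μg/mL kanamycin plus 100 μg/mL carbenicillin, 50 μM IPTG and 0.2% rhamnose. Pooled colonies were amplicon-sequenced on an Illumina HiSeq 2500, and fitness is the DiMSum error-weighted combination of wild-type-normalised replicate fold changes, kanamycin versus none.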

Sequence	self-splicing fitness (ln) (30 °C)	self-splicing fitness (ln) (37 °C)
GUUCAGCAAUAUUACGAUUG	-0.497 ± 0.093	-0.904 ± 0.15
GUUCAGCAAUAUUACGCACU	-0.633 ± 0.085	0.537 ± 0.12
GUUCAGCAAUAUUACGCAGG	-1.35 ± 0.14	-1.28 ± 0.17
GUUCAGCAAUAUUACGCGAG	-0.511 ± 0.11	-0.381 ± 0.11
GUUCAGCAAUAUUACGCGAU	-2.39 ± 0.13	-2.74 ± 0.24
GUUCAGCAAUAUUACGCUAG	-0.585 ± 0.073	-0.102 ± 0.093
GUUCAGCAAUAUUACGGAUC	-1.33 ± 0.098	-0.366 ± 0.1
GUUCAGCAAUAUUACGGAUG	-0.518 ± 0.081	0.107 ± 0.085
GUUCAGCAAUAUUACGGAUU	-0.537 ± 0.092	0.247 ± 0.14
GUUCAGCAAUAUUACGGCUC	0.0792 ± 0.12	-0.018 ± 0.12
GUUCAGCAAUAUUACGGGUC	-1.11 ± 0.11	-1.35 ± 0.12
GUUCAGCAAUAUUACGGGUU	-1.65 ± 0.089	-0.108 ± 0.083
GUUCAGCAAUAUUACGGUGC	-1.34 ± 0.14	-0.357 ± 0.12
GUUCAGCAAUAUUACGUAAA	0.0969 ± 0.077	0.494 ± 0.11
GUUCAGCAAUAUUACGUAGG	-0.609 ± 0.082	0.163 ± 0.1
GUUCAGCAAUAUUACGUAUA	-0.905 ± 0.15	-1.1 ± 0.17
GUUCAGCAAUAUUACGUAUU	-0.531 ± 0.057	-0.576 ± 0.074
GUUCAGCAAUAUUACGUCUU	-0.624 ± 0.056	-0.758 ± 0.064
GUUCAGCAAUAUUACGUGUC	-0.83 ± 0.097	0.00179 ± 0.094
GUUCAGCAAUAUUACGUUCA	-0.741 ± 0.12	-0.425 ± 0.13
GUUGAGCAAUAUUACGACCG		-1.77 ± 0.47
GUUGAGCAAUAUUACGAUGC	-2.24 ± 0.49	-2.24 ± 0.45
GUUGAGCAAUAUUACGCAAG	-2.77 ± 0.21	-1.79 ± 0.26
GUUGAGCAAUAUUACGCAAU	-2.68 ± 0.2	-3.31 ± 0.29
GUUGAGCAAUAUUACGCAGG	-3.35 ± 0.28	-1.75 ± 0.37

Sequence	self-splicing fitness (ln) (30 °C)	self-splicing fitness (ln) (37 °C)
GUUGAGCAAUAUUACGCGCC	-2.97 ± 0.37	
GUUGAGCAAUAUUACGCUCG	-2.49 ± 0.16	-2.34 ± 0.3
GUUGAGCAAUAUUACGCUCU	-2.49 ± 0.47	
GUUGAGCAAUAUUACGGGAC	-2.69 ± 0.34	-1.49 ± 0.35
GUUGAGCAAUAUUACGGUGU	-2.22 ± 0.2	-1.1 ± 0.33
GUUGAGCAAUAUUACGGUUA	-1.88 ± 0.28	-2.09 ± 0.24
GUUGAGCAAUAUUACGUCAC	-3.41 ± 0.43	-1.86 ± 0.23
GUUGAGCAAUAUUACGUGAG	-1.93 ± 0.15	-1.42 ± 0.19
GUUGAGCAAUAUUACGUGUC	-2.34 ± 0.14	-2.2 ± 0.2
GUUGAGCAAUAUUACGUUCG	-1.34 ± 0.086	-1.67 ± 0.11
GUUGAGCAAUAUUACGUUGU	-3.09 ± 0.23	-1.68 ± 0.17
GUUUAGCAAUAUUACGAAAA	-1.78 ± 0.29	-0.97 ± 0.25
GUUUAGCAAUAUUACGAAGA		-0.651 ± 0.34
GUUUAGCAAUAUUACGAAGU	-2.65 ± 0.16	-2.03 ± 0.38
GUUUAGCAAUAUUACGAGCA	-1.35 ± 0.25	-0.983 ± 0.48
GUUUAGCAAUAUUACGAGCU		-0.552 ± 0.27
GUUUAGCAAUAUUACGAGGA	-2.48 ± 0.44	-1.79 ± 0.37
GUUUAGCAAUAUUACGAGGC	-2.48 ± 0.24	-2.45 ± 0.24
GUUUAGCAAUAUUACGCCCU	-0.651 ± 0.098	-0.533 ± 0.11
GUUUAGCAAUAUUACGCCUU	-1.21 ± 0.17	-0.678 ± 0.21
GUUUAGCAAUAUUACGCGAA	-3.53 ± 0.49	-2.01 ± 0.22
GUUUAGCAAUAUUACGCGCA	-0.466 ± 0.1	-0.363 ± 0.12
GUUUAGCAAUAUUACGCUCG	-0.147 ± 0.15	0.0286 ± 0.21
GUUUAGCAAUAUUACGGACU		1.32 ± 0.45
GUUUAGCAAUAUUACGGCAA	-0.678 ± 0.14	-1.03 ± 0.13

Sequence	self-splicing fitness (ln) (30 °C)	self-splicing fitness (ln) (37 °C)
GUUUAGCAAUAUUACGGCUC	0.0411 ± 0.094	0.193 ± 0.12
GUUUAGCAAUAUUACGGGGC	-2.67 ± 0.33	
GUUUAGCAAUAUUACGGUCA	-1.26 ± 0.19	-0.326 ± 0.16
GUUUAGCAAUAUUACGGUUU	-1.32 ± 0.1	-0.0737 ± 0.13
GUUUAGCAAUAUUACGUAUC	-0.904 ± 0.28	-0.233 ± 0.36
GUUUAGCAAUAUUACGUCAC	-3.24 ± 0.24	-0.353 ± 0.17
GUUUAGCAAUAUUACGUCCU	-1.12 ± 0.24	-1.03 ± 0.25
GUUUAGCAAUAUUACGUCUU	-0.801 ± 0.11	-0.25 ± 0.11
GUUUAGCAAUAUUACGUGCC	-2.91 ± 0.36	
GUUUAGCAAUAUUACGUUGG	-3.81 ± 0.37	-1.45 ± 0.23
UAAAAGCAAUAUUACGAAAA	-2.94 ± 0.2	-1.71 ± 0.16
UAAAAGCAAUAUUACGAACA	-0.822 ± 0.072	0.504 ± 0.11
UAAAAGCAAUAUUACGAACC	-3.12 ± 0.36	-1.25 ± 0.45
UAAAAGCAAUAUUACGACCC	-1.73 ± 0.28	0.481 ± 0.33
UAAAAGCAAUAUUACGACGA	-0.526 ± 0.087	-0.201 ± 0.086
UAAAAGCAAUAUUACGAGCU	-2.07 ± 0.11	-1.68 ± 0.14
UAAAAGCAAUAUUACGAUCA	-0.503 ± 0.08	0.0071 ± 0.11
UAAAAGCAAUAUUACGCAAG	-1.48 ± 0.06	-0.639 ± 0.073
UAAAAGCAAUAUUACGCCGA	-1.16 ± 0.12	-0.318 ± 0.14
UAAAAGCAAUAUUACGCCGU	-3.01 ± 0.21	-2.1 ± 0.22
UAAAAGCAAUAUUACGCGCU	-1.22 ± 0.14	0.0478 ± 0.17
UAAAAGCAAUAUUACGCGGG	-2.62 ± 0.1	-1.43 ± 0.12
UAAAAGCAAUAUUACGCUGA	-2.35 ± 0.2	-0.613 ± 0.14
UAAAAGCAAUAUUACGCUGC	-2.51 ± 0.18	-1.35 ± 0.26
UAAAAGCAAUAUUACGCUUC		-3.19 ± 0.25

Sequence	self-splicing fitness (ln) (30 °C)	self-splicing fitness (ln) (37 °C)
UAAAAGCAAUAUUACGCUUG	-1.9 ± 0.12	-0.981 ± 0.14
UAAAAGCAAUAUUACGCUUU	-3.78 ± 0.23	-2.52 ± 0.3
UAAAAGCAAUAUUACGGAAC	-3.24 ± 0.27	-2.68 ± 0.4
UAAAAGCAAUAUUACGGACC	-1.44 ± 0.2	-1.46 ± 0.29
UAAAAGCAAUAUUACGGCAC	-1.64 ± 0.14	-1.13 ± 0.2
UAAAAGCAAUAUUACGGUGA	-1.15 ± 0.077	-0.788 ± 0.076
UAAAAGCAAUAUUACGGUGG	-2.08 ± 0.088	-1.43 ± 0.089
UAAAAGCAAUAUUACGGUUU	-2.78 ± 0.095	-0.178 ± 0.091
UAAAAGCAAUAUUACGUAAU	-2.6 ± 0.12	-1.08 ± 0.13
UAAAAGCAAUAUUACGUGCA	-0.586 ± 0.067	-0.196 ± 0.079
UAAAAGCAAUAUUACGUGUU	-4.13 ± 0.15	-2.63 ± 0.14
UAAAAGCAAUAUUACGUUAA	-2.14 ± 0.15	-1.38 ± 0.13
UAACAGCAAUAUUACGAAAG	-1.44 ± 0.14	-1.76 ± 0.21
UAACAGCAAUAUUACGAAGU	-3.97 ± 0.17	-3.18 ± 0.16
UAACAGCAAUAUUACGACCC	-2.15 ± 0.18	-1.42 ± 0.19
UAACAGCAAUAUUACGACCU	-0.404 ± 0.098	0.106 ± 0.11
UAACAGCAAUAUUACGACUU	-0.586 ± 0.084	0.316 ± 0.11
UAACAGCAAUAUUACGAGCU	-3.71 ± 0.12	-2.37 ± 0.11
UAACAGCAAUAUUACGAGUU	-2.87 ± 0.11	-1.8 ± 0.12
UAACAGCAAUAUUACGAUAC	-2.65 ± 0.39	-2.7 ± 0.48
UAACAGCAAUAUUACGAUUU	-1.47 ± 0.056	-0.218 ± 0.065
UAACAGCAAUAUUACGCAUU	-2.59 ± 0.12	-0.539 ± 0.096
UAACAGCAAUAUUACGCGCG	-0.332 ± 0.064	-0.361 ± 0.078

Source: the supplement of paper PMC7877785
